# In PMC10412584, “Molecular reshaping of phage-displayed Interleukin-2 at beta chain receptor interface to obtain potent super-agonists with improved developability profiles” (Communications Biology, 2023):
# Read-outs that look alike come from different tables or passages of the source.
# T1: human IL-2 receptor beta chain extracellular domain (ECD) (human, UniProt P14784 27-240)
# T1 construct: human IL-2 receptor beta subunit (CD122), recombinant extracellular domain; Coated on immunotubes for panning and on plates for phage ELISA; also called hIL-2R beta subunit ECD; beta chain ECD; source: bought: R&D Systems
# T1 sequence (looked up): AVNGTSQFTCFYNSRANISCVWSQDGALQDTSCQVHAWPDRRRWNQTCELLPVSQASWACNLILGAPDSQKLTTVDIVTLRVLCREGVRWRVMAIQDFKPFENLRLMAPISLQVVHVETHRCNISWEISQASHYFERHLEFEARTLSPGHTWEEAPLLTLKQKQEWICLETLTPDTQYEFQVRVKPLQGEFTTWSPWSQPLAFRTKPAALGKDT
# Experiments:
# [1] = target: T2, 80FDPHDVVE87 + I92L + V93L(K35E)/Fc (human, UniProt P60568 21-153, K35E | L80F | R81D | R83H (from the name 80FDPHDVVE87) | L85V | I86V | S87E | …); assay: SPR
# [2] = target: T3, H9(K35E)/Fc (human, UniProt P60568 21-153, K35E | L80F | R81D | L85V | I86V | I92F); assay: SPR
# [3] = target: T4, 80FDPADVVE87 + I92L(K35E)/Fc (human, UniProt P60568 21-153, K35E | L80F | R81D | R83 was replaced by either Ala or Glu (here Ala) | L85V | …); assay: SPR
# [4] = target: T5, 80FDPEDVVE87 + I92L(K35E)/Fc (human, UniProt P60568 21-153, K35E | L80F | R81D | R83 was replaced by either Ala or Glu (here Glu) | L85V | …); assay: SPR
# [5] = target: T6, IL-2(K35E)/Fc (human, UniProt P60568 21-153, K35E); assay: SPR
# [6] = target: T7, 80VPPEDLIE87 + I92L(K35E)/Fc (human, UniProt P60568 21-153, K35E | L80V (from the name 80VPPEDLIE87) | R81P (from the name 80VPPEDLIE87) | …); assay: SPR
# [7] = target: T8, 80VPPEDLIA87 + I92L(K35E)/Fc (human, UniProt P60568 21-153, K35E | L80V (from the name 80VPPEDLIA87) | R81P (from the name 80VPPEDLIA87) | …); assay: SPR
# [8] = target: T9, fusion protein containing I92L-hIL-2 (K35E, human IgG1 Fc) (human, UniProt P60568 21-153, K35E | I92L); assay: SPR
# [9] = target: T3, H9(K35E)/Fc; assay: SPR; remark: listed apart in the source
# [10] = target: T10, H9(K35E)/Fc in which F92 was replaced by the phage-selected Leu (human, UniProt P60568 21-153, K35E | L80F | R81D | L85V | I86V | I92L); assay: SPR
# [11] = target: T6, IL-2(K35E)/Fc; assay: SPR; remark: listed apart in the source
# [12] = target: T11, H9(K35E)/Fc in which F92 was replaced by the original Ile (human, UniProt P60568 21-153, K35E | L80F | R81D | L85V | I86V); assay: SPR
# [13] = target: T2, 80FDPHDVVE87 + I92L + V93L(K35E)/Fc; assay: SPR; remark: listed apart in the source
# [14] = target: T3, H9(K35E)/Fc; assay: SPR; remark: listed apart in the source
# [15] = target: T4, 80FDPADVVE87 + I92L(K35E)/Fc; assay: SPR; remark: listed apart in the source
# [16] = target: T5, 80FDPEDVVE87 + I92L(K35E)/Fc; assay: SPR; remark: listed apart in the source
# [17] = target: T6, IL-2(K35E)/Fc; assay: SPR; remark: listed apart in the source
# [18] = target: T7, 80VPPEDLIE87 + I92L(K35E)/Fc; assay: SPR; remark: listed apart in the source
# [19] = target: T8, 80VPPEDLIA87 + I92L(K35E)/Fc; assay: SPR; remark: listed apart in the source
# [20] = target: T9, fusion protein containing I92L-hIL-2 …; assay: SPR; remark: listed apart in the source
# [21] = target: T3, H9(K35E)/Fc; assay: SPR; remark: listed apart in the source
# [22] = target: T10, H9(K35E)/Fc in which F92 was replaced …; assay: SPR; remark: listed apart in the source
# [23] = target: T6, IL-2(K35E)/Fc; assay: SPR; remark: listed apart in the source
# [24] = target: T11, H9(K35E)/Fc in which F92 was replaced …; assay: SPR; remark: listed apart in the source
# [25] = target: T1, human IL-2 receptor beta chain …; assay: ELISA; polyvinyl chloride plates coated with human beta chain ECD; purified phage preparations of individual clones; bound phages detected with anti-M13-HRP; relative reactivity = signal on beta chain / signal on 9E10 (anti-c-myc); conditions: both partners purified
binder,measurement,setting,value
recombinant fusion protein comprising human IL-2R beta subunit extracellular domain and mouse IgG2a Fc (Fc fusion) AVNGTSQFTCFYNSRANISCVWSQDGALQDTSCQVHAWPDRRRWNQTCELLPVSQASWACNLILGAPDSQKLTTVDIVTLRVLCREGVRWRVMAIQDFKPFENLRLMAPISLQVVHVETHRCNISWEISQASHYFERHLEFEARTLSPGHTWEEAPLLTLKQKQEWICLETLTPDTQYEFQVRVKPLQGEFTTWSPWSQPLAFRTKPAALGKDT,koff,[1],0.000266 s⁻¹
same,koff,[2],0.000395 s⁻¹
same,koff,[3],0.000461 s⁻¹
same,koff,[4],0.000273 s⁻¹
same,koff,[5],0.00326 s⁻¹
same,koff,[6],0.000304 s⁻¹
same,koff,[7],0.000349 s⁻¹
same,koff,[8],0.00113 s⁻¹
same,koff,[9],0.000218 s⁻¹
same,koff,[10],0.000298 s⁻¹
same,koff,[11],0.00308 s⁻¹
same,koff,[12],0.000251 s⁻¹
same,Kd,[13],1.12 nM
same,Kd,[14],4.09 nM
same,Kd,[15],0.54 nM
same,Kd,[16],0.29 nM
same,Kd,[17],106 nM
same,Kd,[18],0.37 nM
same,Kd,[19],0.8 nM
same,Kd,[20],36.5 nM
same,Kd,[21],4.47 nM
same,Kd,[22],3.35 nM
same,Kd,[23],103 nM
same,Kd,[24],3.84 nM
"phage-displayed hIL-2 variant 2B (S2 library) (ligand, human, UniProt P60568 23-153, looked up, No K35E on the phage) TSSSTKKTQLQLEHLLLDLQMILNGINNYKNPKLTRMLTFKFYMPKKATELKHLQCLEEELKPLEEVLNLAQSKNFHVPPEDLIANINVLVLELKGSETTFMCEYADETATIVEFLNRWITFCQSIISTLT",binding result,[25],binds
